The values that follow come from patent US20150361176A1 (GlaxoSmithKline, published 2015).

As a reminder, the Kd is the concentration at which binding is half-saturated. Broadly, the koff is a measure of how fast the partners let go of each other. As a reminder, the kon is the rate constant with which the complex forms.

Positions count from the first letter of the chain named. In names and notes the source's numbering stands. Several values for one entry are separate records, joined by “and”; a condition that tells them apart may be missing. Equal values may be shown once. Bounds are passed on as bounds.

Experiment [1] concerns the target T1, recombinant human TGF-β RII/Fc chimera protein (human, UniProt P37173 24-159).
T1 construct: range 24-159; Made in HEK-F cells; Biotinylated where it was put on SA chips, otherwise captured by anti-human IgG; also called human TGFbRII/Fc; hRII-Fc; not shown: Fc region of human IgG1
Nature of the experiment: SPR Biacore T100, human TGFbRII-FC, 1:1 model. As to the method:
Triplet or doped libraries in separate CDR1, CDR2 and CDR3 pools were subjected to rounds of phage selection as described above against either biotinylated human TGF-β RII/Fc antigen over 4 rounds in concentrations of 10 nM, 1 nM, 100 pM and 20 pM respectively, or two rounds of selection using 20 pM followed by 2 pM antigen. Inserts from phage selections were cloned into the pDOM10 expression vector and supernatants with off rates improved over parent were selected for further study. Domain antibodies were expressed and purified their affinity and bioactivity against human TGF-β RII/Fc antigen tested on the BIACORE™ T100 and in the Cell sensor assay described above (data not shown).
BIACORE™ analysis was carried out using a capture surface on a CM4 chip. Anti-human IgG was used as the capturing agent and coupled to a CM4 biosensor chip by primary amine coupling. The Antigen molecule fused to the human Fc was captured on this immobilised surface to a level from 250 to 300 resonance units and defined concentrations of Domain antibodies diluted in running buffer were passed over this captured surface. An injection of buffer over the captured antigen surface was used for double referencing. […] All runs were carried out at 25° C. using HBS-EP buffer as running buffer. Data were generated using the BIACORE™ T100 and fitted to the 1:1 binding model inherent to the software.
A general note: Surface plasmon resonance follows binding to a sensor surface in real time, without labels.

Experiment [2] addresses T1, recombinant human TGF-β RII/Fc chimera …. As to the kind of experiment: SPR Biacore, human TGFbRII-FC, 1:1 model (poor fit, ranking only).
Experiment [3] addresses T2, mouse TGF-βRII on MC3T3-E1 cells (mouse osteoblasts) (mouse, UniProt Q62312 24-567).
T2 sequence (looked up): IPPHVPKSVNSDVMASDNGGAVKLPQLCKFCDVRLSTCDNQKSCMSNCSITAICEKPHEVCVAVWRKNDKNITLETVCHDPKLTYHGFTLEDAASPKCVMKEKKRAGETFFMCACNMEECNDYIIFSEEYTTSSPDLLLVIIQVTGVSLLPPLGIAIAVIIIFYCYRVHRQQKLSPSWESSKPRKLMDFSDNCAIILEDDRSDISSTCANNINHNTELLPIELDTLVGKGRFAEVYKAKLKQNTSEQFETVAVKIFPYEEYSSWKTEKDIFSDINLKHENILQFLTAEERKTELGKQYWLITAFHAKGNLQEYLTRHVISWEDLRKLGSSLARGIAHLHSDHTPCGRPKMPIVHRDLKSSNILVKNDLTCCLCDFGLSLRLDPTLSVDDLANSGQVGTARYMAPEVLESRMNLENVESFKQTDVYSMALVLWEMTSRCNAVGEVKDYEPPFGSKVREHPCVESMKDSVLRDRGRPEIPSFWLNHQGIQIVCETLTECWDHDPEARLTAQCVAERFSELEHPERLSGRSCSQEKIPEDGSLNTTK
As to the kind of experiment: cell-based or functional assay.

The target of experiment [4] is T3, human TGF-βRII on cells (SBE-bla HEK 293T cells; A549 cells) (human, UniProt P37173 23-567). Nature of the experiment: cell-based or functional assay.
Experiment [5] has as its target T1, recombinant human TGF-β RII/Fc chimera …. As to the kind of experiment: SPR Biacore.
The next experiment addresses T4, cynomolgus TGF-β RII/Fc (cynomolgus).
T4 construct: extracellular domain; also called Cyno TGFBRII; Cyno TGFbRII
As to the kind of experiment: SPR Biacore.

The target of experiment [6] is T5, recombinant mouse TGF-β RII/Fc chimera protein (mouse; human, UniProt Q62312-1 24-184).
T5 construct: Residue limits are printed only for the human receptor; also called mouse TGFbRII-Fc; mRII-Fc; not shown: Fc region; the assays speak of antigen fused to the human Fc
T5 sequence (looked up): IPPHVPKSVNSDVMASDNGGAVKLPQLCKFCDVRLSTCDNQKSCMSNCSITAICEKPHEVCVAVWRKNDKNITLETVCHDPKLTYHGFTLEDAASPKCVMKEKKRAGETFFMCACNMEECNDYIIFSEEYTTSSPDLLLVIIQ
As to the kind of experiment: SPR Biacore.

The target in experiment [7] is T1, recombinant human TGF-β RII/Fc chimera …. Nature of the experiment: SPR Biacore, human TGFbRII-FC, 1:1 model.
The target is the same in experiment [8]. As to the kind of experiment: SPR Biacore, purified dAb; antigen taken as human TGF-β RII/Fc.
The target of experiment [9] is T3, human TGF-βRII on cells (SBE-bla HEK …). As to the kind of experiment: cell-based or functional assay. The source holds these as a separate data set.
The target in experiment [10] is T1, recombinant human TGF-β RII/Fc chimera …. As to the kind of experiment: SPR Biacore, against parent DOM23h-843.
Experiment [11] shares this target. As to the kind of experiment: SPR Biacore, against parent DOM23h-855.
Experiment [12] has the same target. Nature of the experiment: SPR Biacore, against parent DOM23h-439.

T3 sequence (P37173 23-567): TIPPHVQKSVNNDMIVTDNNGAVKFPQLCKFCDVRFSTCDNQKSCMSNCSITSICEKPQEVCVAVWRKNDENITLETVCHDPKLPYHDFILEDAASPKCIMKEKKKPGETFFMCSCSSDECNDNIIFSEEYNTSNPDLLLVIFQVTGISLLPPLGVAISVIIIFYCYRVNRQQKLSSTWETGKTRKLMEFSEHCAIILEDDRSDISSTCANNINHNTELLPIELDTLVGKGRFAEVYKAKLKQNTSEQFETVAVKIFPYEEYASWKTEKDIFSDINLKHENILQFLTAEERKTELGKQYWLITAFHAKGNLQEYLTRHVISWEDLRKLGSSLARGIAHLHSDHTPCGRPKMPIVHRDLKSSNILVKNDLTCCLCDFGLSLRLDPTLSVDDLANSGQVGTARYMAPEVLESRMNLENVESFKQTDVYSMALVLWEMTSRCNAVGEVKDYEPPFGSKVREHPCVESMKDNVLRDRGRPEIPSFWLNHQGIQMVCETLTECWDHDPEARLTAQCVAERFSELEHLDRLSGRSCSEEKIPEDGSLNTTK
T1 sequence (P37173 24-159 limits assumed, change not shown): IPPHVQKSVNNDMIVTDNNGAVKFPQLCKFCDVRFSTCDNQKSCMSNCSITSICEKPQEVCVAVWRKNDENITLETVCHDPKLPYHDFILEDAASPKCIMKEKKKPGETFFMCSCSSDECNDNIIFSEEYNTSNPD

B1: DOM23h-271-7 (VHH)
VHH: EVQLLESGGGLVQPGGSLRLSCAASGFTFTEYRMWWVRQAPGKGLEWVSAIEPIGNRTYYADSVKGRFTISRDNSKNTLYLQMNSLRAEDTAVYYCAKQIPGRKWTANSRFDYWGQGTLVTVSS
notes: human VH dAb; also called 271-7a; 271-7b
As to B1, in experiment [1], the Kd was 13.8 nM and 18.4 nM; the koff was 0.0419 s⁻¹ and 0.0445 s⁻¹; the kon was 3.04e+06 M⁻¹ s⁻¹ and 2.42e+06 M⁻¹ s⁻¹. In addition, in experiment [2], the Kd was 9.49 nM, the koff came out at 0.051 s⁻¹ and the kon came out at 5.37e+06 M⁻¹ s⁻¹.

B2: DOM23h-271-39 (VHH)
VHH: B1 VHH with D62R, K65D, I100M, R103Q, T106M, N108K
notes: human VH dAb; also called DOM23h-271-22 plus D61R K64D; RD
Take B2: the “Mouse 3T3 Luciferase assay IC50” value in experiment [3] came out at 11100 nM. In addition, the “Human Cell sensor IC50” value in experiment [4] came to 1.17 nM. Further, the Kd in [5] was 0.0149 nM; with cynomolgus TGF-β RII/Fc, 0.024 nM; in [6], 1.78 nM.

B3: DOM23h-271-22 (VHH)
VHH: B1 VHH with I100M, R103Q, T106M, N108K
notes: human VH dAb from DNA display; expressed from pDOM13
On to B3, for which, in experiment [7], the Kd amounted to 0.286 nM, the koff was found to be 0.000919 s⁻¹ and the kon turned out to be 3.22e+06 M⁻¹ s⁻¹. Further, the “Mouse 3T3 Luciferase assay IC50” value in experiment [3] was above 17800 nM. The “Human Cell sensor IC50” value in experiment [4] is 39 nM. In addition, the Kd in [5] came out at 0.202 nM. Further, in the experiment with cynomolgus TGF-β RII/Fc, the Kd is 0.225 nM.

B4: DOM23h-271-40 (VHH)
VHH: B1 VHH with D62R, K65F, I100M, R103Q, T106M, N108K
notes: human VH dAb; also called DOM23h-271-22 plus D61R K64F; RF
For the molecule B4, the “Mouse 3T3 Luciferase assay IC50” value in [3] is 1200 nM. The “Human Cell sensor IC50” value in experiment [4] amounted to 0.53 nM. Also, the results for the Kd (in experiment [5]; with cynomolgus TGF-β RII/Fc; in experiment [6]) were 0.00999 nM, 0.0112 nM and 0.548 nM, respectively.

B5: DOM23h-843-13 (VHH)
VHH: EVQLLESGGGLVQPGGSLRLSCAASGFTFDQDRMWWVRQAPGKGLEWVSAIESGGHRTYYADSVKGRFTISRDNSKNTLYLQMNSLRAEDTAVYYCANQNKSGRSGFDYWGQGTLVTVSS
notes: human VH dAb, error-prone matured; expressed from pDOM13, tag not described
With B5, in experiment [8], the Kd worked out at 4.13 nM, the koff worked out at 0.0211 s⁻¹ and the kon is 5.11e+06 M⁻¹ s⁻¹. For the same molecule, the “Mean IC50 (nM), SBE-bla HEK 293T Cell Sensor assay (h2)” value (“Mean IC50 (nM)” below) in [9] was 540 nM. Besides, in experiment [10], the “KD Fold improvement” value was 91.7 fold, the “ka Fold improvement” value amounted to 5.6 fold and the “kd Fold improvement” value worked out at 16.2 fold.

B6: DOM23h-855-21 (VHH)
VHH: EVQLLESGGGLVQPGGSLRLSCAASGFTFENTSMGWVRQAPGKGLEWVSRIDPKGSHTYYTDSVKGRFTISRDNSKNTLYLQMNSLRAEDTAVYYCAKQRELGKSYFDYWGQGTLVTVSS
notes: as for B5
Consider B6, for which, in [8], the Kd amounted to 18 nM, the koff amounted to 0.0336 s⁻¹ and the kon came to 1.86e+06 M⁻¹ s⁻¹. In [11], the “KD Fold improvement” value was determined as 52.3 fold, the “ka Fold improvement” value turned out to be 5.6 fold and the “kd Fold improvement” value was 9.4 fold. Also, in [9], the “Mean IC50 (nM)” value is 18600 nM.

B7: DOM23h-439-20 (VHH)
VHH: EVQLLESGGGLVQPGGSLRLSCAASGFTFGTEQMWWVRQAPGKGLEFVSRIDSPGGRTYYADSVKGRFTISRDNSKNTLYLQMNSLRAEDTAVYYCAKRHAAGVSGTYFDYWGQGTLVTVSS
notes: as for B5
Take B7: in experiment [8], the Kd was found to be 0.799 nM, the koff worked out at 0.00354 s⁻¹ and the kon is 4.43e+06 M⁻¹ s⁻¹. Further, in [12], the “KD Fold improvement” value came out at 30.3 fold, the “ka Fold improvement” value worked out at 2.1 fold and the “kd Fold improvement” value stood at 14.2 fold. The “Mean IC50 (nM)” value in experiment [9] worked out at 48 nM.
